As usually defined, the Tm is the temperature at which the thermal transition is half complete. By kcat is commonly meant the maximal rate divided by the concentration of active sites.

Experimental findings from patent US20240279622A1, “COELENTERAZINE-UTILIZING LUCIFERASES WITH STABLE GLOW-TYPE LIGHT EMISSION AND METHODS OF PRODUCING AND USING THEREOF” (MASARYKOVA UNIVERZITA, priority 2021, published 2024) are described below.

Series [1] can be described thus: Thermal unfolding by NanoDSF (tryptophan fluorescence). Format: physicochemical. The note with it: 100 mM potassium phosphate buffer pH 7.5, 1° C./min. As for the experimental part: Thermal unfolding was studied using NanoDSF Prometheus (NanoTemper, Germany) by monitoring tryptophan fluorescence over the temperature range of 20 to 90° C., at a heating rate of 1° C./min. The melting temperatures (Tonset and Tm) were evaluated directly by ThermControl v2.0.2.
For orientation: Differential scanning fluorimetry follows unfolding on heating by fluorescence.

The nature of series [2]: Steady-state kinetic analysis of full-conversion cumulative luminescence curves. Format: biochemical. The note with it: for kcat / Kd: 100 mM phosphate buffer pH 7.5, 37° C.; for Kd: read-out: Kp (equilibrium dissociation constant for enzyme-product complex); for Decrease of ratio Km/Kp: compared to the other tested variants; for Glow-type effectivity: kcat/Km divided by Km/Kp. As for the experimental part: Each luminescence trace was measured in 3 repetitions. The concentration of coelenterazine in the final reaction mixture ranged from 0.2 to 7.9 μM while the concentration of luciferase enzymes ranged from 17 to 640 nM.
An updated protocol applying new standards for collecting and fitting steady-state kinetic data was used. Unlike the classical initial velocity analysis, which requires a sophisticated luminometer calibration and quantum yield evaluation, luminescence data were recorded when letting the reaction proceed to completion beyond the initial linear phase. The recorded luminescence traces (rate vs. time) were transformed to reaction progress curves corresponding to cumulative luminescence in time. The transformed kinetic data (product vs. time) were fitted globally with the KinTek Explorer (KinTek Corporation, USA). The software allows for the input of a given kinetic model via a simple text description, and the program then derives the differential equations needed for numerical integration automatically.
Numerical integration of rate equations searching a set of kinetic parameters that produce a minimum χ^2 value was performed using the Bulirsch-Stoer algorithm with adaptive step size, and nonlinear regression to fit data was based on the Levenberg-Marquardt method. To account for fluctuations in experimental data, enzyme or substrate concentrations were slightly adjusted (5%) to derive best fits. Residuals were normalized by sigma values for each data point. The standard error was calculated from the covariance matrix during nonlinear regression. In addition to standard error values, more rigorous analysis of the variation of the kinetic parameters was accomplished by confidence contour analysis by using FitSpace Explorer (KinTek Corporation, USA). In these analyses, the lower and upper limits for each parameter were derived from the confidence contour obtained from setting χ^2 threshold at 0.9. The scaling factor, relating luminescence signal to product concentration, was applied as one of the fitted parameters, well constrained by end-point levels of kinetic traces recorded at particular substrate concentrations. Depletion of the available substrate after the reaction was ensured by repeated injection of the fresh enzyme.
The steady-state model, described by Equation (4), was used to obtain the values of turnover number kcat, Michaelis constant Km, and equilibrium dissociation constant for enzyme-product complex Kp. A conservative estimate for diffusion-limited substrate and product binding k1 and k3 (100 μM^−1·s^−1) was used as a fixed value to mimic the rapid equilibrium assumption. An alternative form of the model, described by Equation (5), was used to obtain estimates of kcat/Km directly by setting k−1=0.

B1: AncFT-D160A: AncFT carrying the single-point D160A mutation; blue-shifted emission (protein)
chain: MVSASQRTTSTATGDEWWAKCKQVDVLDSEMSYYDSDPGKHKNTVIFLHGNPTSSYLWRNVIPHVEPLARCLAPDLIGMGKSGKLPNHSYRFVDHYRYLSAWFDSVNLPEKVTIVCHDWGSGLGFHWCNEHRDRVKGIVHMESVVDVIESWDEWPDIEEAIALIKSEAGEEMVLKKNFFIERLLPSSIMRKLSEEEMDAYREPFVEPGESRRPTLTWPREIPIKGDGPEDVIEIVKSYNKWLSTSKDIPKLFINADPGFFSNAIKKVTKNWPNQKTVTVKGLHFLQEDSPEEIGEAIADFLNELTK
modifications: Amino acid sequence of AncFT-D160A
notes: AncFT carrying the single-point D160A mutation; blue-shifted emission
With B1, in series [1], the Tm was 57.9 ± 0.1 °C and the Tonset was found to be 51.5 ± 0.1 °C. In series [2], the kcat was 0.339 ± 0.001 s⁻¹, the Kd worked out at 230 ± 10 nM, the “Decrease of ratio Km/Kp” value came out at 10 fold and the Glow-type effectivity stood at 3.6 ± 0.3.

B2: AncFT-L14: AncFT with additionally transplanted L14 loop (LVKGGKP at positions 223 to 229) from RLuc (protein)
chain: MVSASQRTTSTATGDEWWAKCKQVDVLDSEMSYYDSDPGKHKNTVIFLHGNPTSSYLWRNVIPHVEPLARCLAPDLIGMGKSGKLPNHSYRFVDHYRYLSAWFDSVNLPEKVTIVCHDWGSGLGFHWCNEHRDRVKGIVHMESVVDVIESWDEWPDIEEDIALIKSEAGEEMVLKKNFFIERLLPSSIMRKLSEEEMDAYREPFVEPGESRRPTLTWPREIPLVKGGKPDVIEIVKSYNKWLSTSKDIPKLFINADPGFFSNAIKKVTKNWPNQKTVTVKGLHFLQEDSPEEIGEAIADFLNELTK
modifications: Amino acid sequence of AncFT-L14
notes: AncFT with additionally transplanted L14 loop (LVKGGKP at positions 223 to 229) from RLuc
As for B2, in series [1], the Tm came to 47.0 ± 0.1 °C and the Tonset came out at 39.8 ± 0.2 °C. For the same molecule, in series [2], the kcat came out at 0.168 ± 0.001 s⁻¹, the Kd was found to be 550 ± 30 nM, the “Decrease of ratio Km/Kp” value is reported as 10 fold and the Glow-type effectivity is listed as 48 ± 6. Also, the “Improvement of glow-type effectivity” value in series [2] (compared to AncFT) turned out to be 4 fold. In addition, the “Improvement of glow-type effectivity” value in series [2] (compared to RLuc8) is “more than 20 fold”.

B3: Super RLuc8: Recently reported RLuc8 enzyme variant (Rahnama et el., 2017) (protein)
chain: MTSKVYDPEQRKRMITGPQWWARCKQMNVLDSFINYYDSEKHAENAVIFLHGNATSSYLWRHVVPHIEPVARCIIPDLIGMGKSGKSGNGSYRLLDHYKYLTAWFELLNLPKKIIFVGHDWGSALAFHYAYEHQDRIKAIVHMESVVDVIESWKNWPDIEEELALIKSEEGEKMVLENNFFVETVLPSVIMRKLEPEEFAAYLEPFKEKGEVRRPTLSWPREIPLVKGGKPDVVQIVRNYNAYLRASDDLPKLFIESDPGWFSNAIIEGAKKFPNTEFVKVKGLHFLQEDAPDEMGKYIKSFVERVLKNEQ
modifications: Super RLuc8
In the case of B3, in series [1], the melting temperature (Tm) was found to be 50.1 ± 0.2 °C and the Tonset is 39.1 ± 0.3 °C. Moreover, in series [2], the kcat was 6.49 ± 0.05 s⁻¹, the Kd stood at 920 ± 10 nM and the Glow-type effectivity is 0.17 ± 0.02.
